Data published in the Human Domainome abundance scans (Beltran et al. 2025).
± gives the uncertainty stated by the source.

B1: Protein C-ets-1, residues 55 to 135; numbered along this chain, P14921 (parent)
chain: GFTKEQQRLGIPKDPRQWTETHVRDWVMWAVNEFSLKGVDFQKFCMNGAALCALGKDCFLELAPDFVGDILWEHLEILQKE

Variants of: B1
Assay: abundance fitness (aPCA) (normalised: wild type 0, dead -1); higher = more abundant; growth selection in yeast, the domain comes from the species named
Details: Homo sapiens
In the case of D40A, the abundance fitness is reported as -0.294 ± 0.038. Variant D40V has an abundance fitness of -0.209 ± 0.047. D40W showed an abundance fitness of -0.77 ± 0.088. In the case of D40C, the abundance fitness is reported as -0.134 ± 0.057. Variant D40Q has an abundance fitness of -0.045 ± 0.089. D40E gave an abundance fitness of -0.059 ± 0.055. D40S gave an abundance fitness of -0.164 ± 0.037. In the case of D40F, the abundance fitness is reported as -0.685 ± 0.11. With D40M the abundance fitness was -0.368 ± 0.037. In the case of D40K, the abundance fitness is reported as -0.234 ± 0.09. Variant D40G has an abundance fitness of -0.546 ± 0.041. In the case of D40N, the abundance fitness is reported as -0.146 ± 0.067. D40R gave an abundance fitness of -0.245 ± 0.038. Work on D40P yielded an abundance fitness of -0.343 ± 0.051. For D40T, the abundance fitness was -0.363 ± 0.065. With D40I the abundance fitness was -0.32 ± 0.12. In the case of D40H, the abundance fitness is reported as -0.225 ± 0.059. In the case of D40L, the abundance fitness is reported as -0.482 ± 0.056. M46R gave an abundance fitness of -0.507 ± 0.043. Work on M46C yielded an abundance fitness of -0.317 ± 0.076. M46E showed an abundance fitness of -0.991 ± 0.13. For M46K, the abundance fitness was -0.376 ± 0.065. Variant M46L has an abundance fitness of -0.074 ± 0.036. With M46F the abundance fitness was -0.028 ± 0.09. In the case of M46V, the abundance fitness is reported as -0.234 ± 0.028. In the case of M46A, the abundance fitness is reported as -0.652 ± 0.05. For M46H, the abundance fitness was -0.441 ± 0.12. Work on M46I yielded an abundance fitness of -0.154 ± 0.074. Work on M46W yielded an abundance fitness of -0.631 ± 0.11. Work on M46D yielded an abundance fitness of -0.777 ± 0.12. In the case of M46Q, the abundance fitness is reported as -0.335 ± 0.065. With M46Y the abundance fitness was -0.203 ± 0.083. With M46T the abundance fitness was -0.477 ± 0.058. M46G gave an abundance fitness of -0.671 ± 0.046. Work on M46P yielded an abundance fitness of -0.852 ± 0.076. For M46S, the abundance fitness was -0.724 ± 0.05. For G38T, the abundance fitness was -0.201 ± 0.047. G38V gave an abundance fitness of -0.476 ± 0.034. G38L showed an abundance fitness of -0.492 ± 0.038. G38H showed an abundance fitness of 0 ± 0.082. G38A showed an abundance fitness of -0.202 ± 0.039. Work on G38F yielded an abundance fitness of -0.43 ± 0.055. Work on G38S yielded an abundance fitness of -0.123 ± 0.032. For G38N, the abundance fitness was 0.052 ± 0.098. In the case of G38I, the abundance fitness is reported as -0.428 ± 0.12. G38Q gave an abundance fitness of -0.221 ± 0.062. For G38P, the abundance fitness was -0.172 ± 0.044. G38W gave an abundance fitness of -0.467 ± 0.047. G38D showed an abundance fitness of -0.039 ± 0.05. G38M gave an abundance fitness of -0.273 ± 0.048. Variant G38E has an abundance fitness of -0.103 ± 0.052. Work on G38R yielded an abundance fitness of -0.18 ± 0.029. G38C showed an abundance fitness of -0.334 ± 0.071. G38K gave an abundance fitness of -0.055 ± 0.082. Work on F44D yielded an abundance fitness of -0.724 ± 0.18. Variant F44G has an abundance fitness of -1.02 ± 0.098. Variant F44M has an abundance fitness of -0.275 ± 0.074. With F44A the abundance fitness was -0.769 ± 0.065. With F44I the abundance fitness was -0.38 ± 0.079. In the case of F44C, the abundance fitness is reported as -1.01 ± 0.2. F44K showed an abundance fitness of -1.04 ± 0.27. For F44N, the abundance fitness was -1.01 ± 0.47. Work on F44P yielded an abundance fitness of -0.892 ± 0.1. Work on F44Q yielded an abundance fitness of -1.08 ± 0.24. F44W showed an abundance fitness of -0.138 ± 0.05. Variant F44T has an abundance fitness of -0.766 ± 0.16. In the case of F44H, the abundance fitness is reported as -0.89 ± 0.22. F44V showed an abundance fitness of -0.539 ± 0.042. F44R showed an abundance fitness of -0.939 ± 0.1. Work on F44E yielded an abundance fitness of -0.73 ± 0.1. For F44S, the abundance fitness was -0.76 ± 0.067. M28W gave an abundance fitness of -0.11 ± 0.039. Work on M28V yielded an abundance fitness of 0.009 ± 0.032. For M28Y, the abundance fitness was -0.153 ± 0.087. With N47W the abundance fitness was -1.01 ± 0.1. For N47P, the abundance fitness was 0.014 ± 0.044. For N47K, the abundance fitness was -0.204 ± 0.082. Variant N47E has an abundance fitness of -0.165 ± 0.085. Work on N47T yielded an abundance fitness of 0.065 ± 0.061. With N47C the abundance fitness was -0.223 ± 0.062. Variant N47L has an abundance fitness of -0.879 ± 0.07. In the case of N47M, the abundance fitness is reported as -0.881 ± 0.1. In the case of N47S, the abundance fitness is reported as -0.003 ± 0.034. Variant N47D has an abundance fitness of -0.007 ± 0.084.
